Results on four sequences are retold here after patent US10500249B2, “Compositions and methods for preventing or treating diseases, conditions, or processes characterized by aberrant fibroblast proliferation and extracellular matrix deposition” (MOERAE MATRIX, INC., priority 2014, dated 2019).

What all share (experiment): Kinase Profiling Assay
Holding throughout (format): biochemical
Conditions in all cases: 100 μM

The target of assay [1] is Src(T341M) (h) (Homo sapiens, UniProt P12931, T341M). The essentials: (§1)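 Measured twice per kinase, activity in presence of MK2 inhibitory peptide was calculated against a 100% activity control after radiometric phosphorylation of a cationic substrate, anionic filter capture and scintillation counting; one of 266 human kinases profiled for specificity.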
Assay [2] has as its target Abl(Y253F) (h) (Homo sapiens, UniProt P00519, Y253F). In short, it runs like this:
as §1

Assay [3] deals with T1, cKit (h) (Homo sapiens, UniProt P10721).
T1 construct: purchased Millipore
In short, it runs like this: as §1

The target of assay [4] is T2, CaMKIIδ (h) (Homo sapiens, UniProt Q13557).
T2 construct: purchased Millipore
T2 sequence (Q13557 whole entry): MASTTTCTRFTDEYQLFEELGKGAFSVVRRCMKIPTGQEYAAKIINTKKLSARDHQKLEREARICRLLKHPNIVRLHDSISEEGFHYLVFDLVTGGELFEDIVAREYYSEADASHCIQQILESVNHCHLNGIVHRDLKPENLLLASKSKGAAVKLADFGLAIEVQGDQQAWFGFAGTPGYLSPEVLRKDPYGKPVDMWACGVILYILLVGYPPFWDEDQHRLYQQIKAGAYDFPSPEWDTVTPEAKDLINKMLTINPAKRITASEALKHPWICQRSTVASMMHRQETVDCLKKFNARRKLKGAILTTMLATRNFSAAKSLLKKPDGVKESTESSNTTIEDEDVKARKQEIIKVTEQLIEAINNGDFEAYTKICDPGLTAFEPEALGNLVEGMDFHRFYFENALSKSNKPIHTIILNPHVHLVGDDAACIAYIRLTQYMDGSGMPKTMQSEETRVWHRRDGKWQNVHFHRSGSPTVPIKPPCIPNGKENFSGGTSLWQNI
The essentials: as §1

The target in assay [5] is Met(Y1248C) (h) (Homo sapiens, UniProt P08581, Y1230C). In short, it runs like this:
as §1

Assay [6] deals with T3, IKKα (h) (Homo sapiens, UniProt O15111).
T3 construct: purchased Millipore
T3 sequence (O15111 1-745): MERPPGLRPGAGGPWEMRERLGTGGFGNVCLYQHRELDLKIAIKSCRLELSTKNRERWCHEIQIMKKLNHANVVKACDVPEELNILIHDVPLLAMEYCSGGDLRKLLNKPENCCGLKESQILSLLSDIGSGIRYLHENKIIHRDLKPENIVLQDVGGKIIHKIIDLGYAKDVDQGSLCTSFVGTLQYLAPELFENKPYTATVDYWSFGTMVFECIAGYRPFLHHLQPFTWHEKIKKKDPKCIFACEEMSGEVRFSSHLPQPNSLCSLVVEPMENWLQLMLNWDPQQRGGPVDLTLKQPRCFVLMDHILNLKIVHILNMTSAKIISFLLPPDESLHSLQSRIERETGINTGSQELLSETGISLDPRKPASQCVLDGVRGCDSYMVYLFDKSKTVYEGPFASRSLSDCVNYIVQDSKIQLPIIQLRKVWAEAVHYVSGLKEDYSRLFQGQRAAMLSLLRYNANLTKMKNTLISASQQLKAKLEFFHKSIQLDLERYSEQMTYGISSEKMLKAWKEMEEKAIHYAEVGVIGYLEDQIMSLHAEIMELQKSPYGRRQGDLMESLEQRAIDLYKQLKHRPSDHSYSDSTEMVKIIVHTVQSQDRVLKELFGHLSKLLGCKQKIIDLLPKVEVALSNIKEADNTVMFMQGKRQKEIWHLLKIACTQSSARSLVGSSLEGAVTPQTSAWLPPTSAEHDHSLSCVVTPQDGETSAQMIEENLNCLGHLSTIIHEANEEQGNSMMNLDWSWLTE
In short, it runs like this:
as §1

Assay [7] addresses T4, PKG1α (h) (Homo sapiens, UniProt Q13976).
T4 sequence (Q13976 1-671): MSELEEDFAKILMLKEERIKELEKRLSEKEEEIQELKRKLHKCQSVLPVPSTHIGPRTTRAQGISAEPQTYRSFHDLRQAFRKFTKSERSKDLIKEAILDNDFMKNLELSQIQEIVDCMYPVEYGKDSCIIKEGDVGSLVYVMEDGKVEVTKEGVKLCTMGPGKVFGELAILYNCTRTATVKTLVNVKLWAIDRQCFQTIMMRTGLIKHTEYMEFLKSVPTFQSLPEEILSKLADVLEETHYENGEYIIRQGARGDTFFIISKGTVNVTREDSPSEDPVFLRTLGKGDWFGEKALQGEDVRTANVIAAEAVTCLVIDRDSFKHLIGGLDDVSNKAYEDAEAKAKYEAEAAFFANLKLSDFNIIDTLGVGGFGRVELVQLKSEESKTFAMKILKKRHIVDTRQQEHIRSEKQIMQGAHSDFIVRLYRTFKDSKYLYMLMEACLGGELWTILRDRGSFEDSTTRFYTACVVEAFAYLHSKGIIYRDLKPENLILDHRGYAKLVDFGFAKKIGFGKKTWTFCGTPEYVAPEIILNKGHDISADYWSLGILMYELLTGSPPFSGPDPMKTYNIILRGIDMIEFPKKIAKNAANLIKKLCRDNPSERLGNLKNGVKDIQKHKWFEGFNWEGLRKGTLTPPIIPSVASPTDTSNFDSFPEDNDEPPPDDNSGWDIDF
The essentials: as §1

Assay [8] addresses Tie2(Y897S) (h) (Homo sapiens, UniProt Q02763, Y897S). In short, it runs like this:
as §1

In assay [9] the target is ALK (h) (Homo sapiens, UniProt Q9UM73). In short, it runs like this:
as §1

Assay [10] addresses T5, PASK (h) (Homo sapiens, UniProt Q96RG2).
T5 construct: purchased Millipore
In short, it runs like this:
as §1

For assay [11], the target named is T6, IGF-1R (h), activated (Homo sapiens, UniProt P08069).
T6 construct: purchased Millipore
T6 sequence (P08069 959-1367 limits assumed): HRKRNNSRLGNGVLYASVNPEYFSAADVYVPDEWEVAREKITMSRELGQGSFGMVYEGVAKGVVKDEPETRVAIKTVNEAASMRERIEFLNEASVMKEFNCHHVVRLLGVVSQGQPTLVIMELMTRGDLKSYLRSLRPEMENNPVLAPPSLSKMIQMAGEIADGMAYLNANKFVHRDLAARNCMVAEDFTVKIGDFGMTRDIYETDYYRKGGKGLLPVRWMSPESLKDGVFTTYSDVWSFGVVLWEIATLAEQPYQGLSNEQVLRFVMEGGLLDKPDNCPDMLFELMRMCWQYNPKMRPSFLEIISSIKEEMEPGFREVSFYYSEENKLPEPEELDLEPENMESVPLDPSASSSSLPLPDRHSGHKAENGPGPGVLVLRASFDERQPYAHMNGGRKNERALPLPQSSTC
In short, it runs like this: as §1

The target of assay [12] is LOK (h) (Homo sapiens, UniProt O94804). In short, it runs like this: as §1
For assay [13], the target named is T7, NEK3 (h) (Homo sapiens, UniProt P51956).
T7 construct: purchased Millipore
T7 sequence (P51956 1-506): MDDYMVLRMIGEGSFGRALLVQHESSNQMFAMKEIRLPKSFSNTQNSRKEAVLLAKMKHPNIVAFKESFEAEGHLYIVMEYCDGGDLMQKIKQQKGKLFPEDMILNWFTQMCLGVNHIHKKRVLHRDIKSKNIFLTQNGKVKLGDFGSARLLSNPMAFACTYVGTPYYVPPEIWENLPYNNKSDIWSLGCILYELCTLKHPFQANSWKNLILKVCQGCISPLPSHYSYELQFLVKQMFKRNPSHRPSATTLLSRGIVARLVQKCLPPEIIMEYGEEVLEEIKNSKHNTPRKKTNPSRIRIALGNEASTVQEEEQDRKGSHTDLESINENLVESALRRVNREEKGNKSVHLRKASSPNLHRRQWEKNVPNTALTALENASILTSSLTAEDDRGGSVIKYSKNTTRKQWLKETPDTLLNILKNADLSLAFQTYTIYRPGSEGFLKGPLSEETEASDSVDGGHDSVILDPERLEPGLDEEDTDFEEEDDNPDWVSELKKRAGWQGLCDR
The essentials: as §1

Assay [14] deals with T8, CSK (h) (Homo sapiens, UniProt P41240).
T8 construct: purchased Millipore
The essentials:
as §1

Chain of ALK (h) (Q9UM73 19-1620): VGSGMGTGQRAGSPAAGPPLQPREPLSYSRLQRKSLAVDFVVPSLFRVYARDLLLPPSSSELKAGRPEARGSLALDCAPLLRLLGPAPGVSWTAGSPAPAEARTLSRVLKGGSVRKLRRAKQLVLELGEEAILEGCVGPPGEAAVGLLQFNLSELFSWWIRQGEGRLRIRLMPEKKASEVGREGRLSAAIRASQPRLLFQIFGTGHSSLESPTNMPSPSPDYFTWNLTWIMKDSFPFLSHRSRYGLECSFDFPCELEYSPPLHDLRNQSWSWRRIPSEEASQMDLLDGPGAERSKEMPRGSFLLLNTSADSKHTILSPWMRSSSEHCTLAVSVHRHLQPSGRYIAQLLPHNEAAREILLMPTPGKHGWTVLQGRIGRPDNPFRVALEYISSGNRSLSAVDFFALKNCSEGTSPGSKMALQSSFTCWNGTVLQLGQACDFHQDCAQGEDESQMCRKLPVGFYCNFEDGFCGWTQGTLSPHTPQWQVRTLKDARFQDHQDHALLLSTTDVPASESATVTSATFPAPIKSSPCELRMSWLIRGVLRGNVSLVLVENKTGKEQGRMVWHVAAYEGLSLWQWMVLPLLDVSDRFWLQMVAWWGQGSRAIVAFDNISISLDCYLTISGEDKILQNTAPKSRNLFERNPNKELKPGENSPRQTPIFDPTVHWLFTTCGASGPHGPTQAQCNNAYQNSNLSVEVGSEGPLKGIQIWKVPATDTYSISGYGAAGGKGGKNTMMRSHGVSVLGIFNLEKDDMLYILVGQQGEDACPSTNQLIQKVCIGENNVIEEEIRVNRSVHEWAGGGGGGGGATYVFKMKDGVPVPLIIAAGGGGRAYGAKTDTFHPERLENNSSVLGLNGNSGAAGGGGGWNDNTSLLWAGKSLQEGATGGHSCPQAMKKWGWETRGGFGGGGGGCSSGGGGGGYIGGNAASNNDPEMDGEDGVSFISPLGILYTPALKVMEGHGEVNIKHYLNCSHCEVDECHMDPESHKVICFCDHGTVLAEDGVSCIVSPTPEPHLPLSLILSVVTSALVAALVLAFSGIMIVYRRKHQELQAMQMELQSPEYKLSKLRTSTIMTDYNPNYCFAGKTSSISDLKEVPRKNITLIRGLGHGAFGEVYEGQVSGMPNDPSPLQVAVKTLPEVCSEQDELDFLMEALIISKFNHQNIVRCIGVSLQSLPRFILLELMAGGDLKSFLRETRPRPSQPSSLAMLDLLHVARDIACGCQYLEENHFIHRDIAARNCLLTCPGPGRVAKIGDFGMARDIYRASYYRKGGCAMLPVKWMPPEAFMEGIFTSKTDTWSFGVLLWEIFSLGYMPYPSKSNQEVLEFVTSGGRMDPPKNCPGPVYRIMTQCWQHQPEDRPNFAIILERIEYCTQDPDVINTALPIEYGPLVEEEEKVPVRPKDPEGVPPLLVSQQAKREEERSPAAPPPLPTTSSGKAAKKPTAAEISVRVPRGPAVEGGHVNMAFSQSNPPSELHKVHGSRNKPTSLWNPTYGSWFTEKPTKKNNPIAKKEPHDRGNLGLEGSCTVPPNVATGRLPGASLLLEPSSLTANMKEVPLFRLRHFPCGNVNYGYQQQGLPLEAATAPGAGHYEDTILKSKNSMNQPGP
Chain of Tie2(Y897S) (h) (Q02763 23-1124 Y897S): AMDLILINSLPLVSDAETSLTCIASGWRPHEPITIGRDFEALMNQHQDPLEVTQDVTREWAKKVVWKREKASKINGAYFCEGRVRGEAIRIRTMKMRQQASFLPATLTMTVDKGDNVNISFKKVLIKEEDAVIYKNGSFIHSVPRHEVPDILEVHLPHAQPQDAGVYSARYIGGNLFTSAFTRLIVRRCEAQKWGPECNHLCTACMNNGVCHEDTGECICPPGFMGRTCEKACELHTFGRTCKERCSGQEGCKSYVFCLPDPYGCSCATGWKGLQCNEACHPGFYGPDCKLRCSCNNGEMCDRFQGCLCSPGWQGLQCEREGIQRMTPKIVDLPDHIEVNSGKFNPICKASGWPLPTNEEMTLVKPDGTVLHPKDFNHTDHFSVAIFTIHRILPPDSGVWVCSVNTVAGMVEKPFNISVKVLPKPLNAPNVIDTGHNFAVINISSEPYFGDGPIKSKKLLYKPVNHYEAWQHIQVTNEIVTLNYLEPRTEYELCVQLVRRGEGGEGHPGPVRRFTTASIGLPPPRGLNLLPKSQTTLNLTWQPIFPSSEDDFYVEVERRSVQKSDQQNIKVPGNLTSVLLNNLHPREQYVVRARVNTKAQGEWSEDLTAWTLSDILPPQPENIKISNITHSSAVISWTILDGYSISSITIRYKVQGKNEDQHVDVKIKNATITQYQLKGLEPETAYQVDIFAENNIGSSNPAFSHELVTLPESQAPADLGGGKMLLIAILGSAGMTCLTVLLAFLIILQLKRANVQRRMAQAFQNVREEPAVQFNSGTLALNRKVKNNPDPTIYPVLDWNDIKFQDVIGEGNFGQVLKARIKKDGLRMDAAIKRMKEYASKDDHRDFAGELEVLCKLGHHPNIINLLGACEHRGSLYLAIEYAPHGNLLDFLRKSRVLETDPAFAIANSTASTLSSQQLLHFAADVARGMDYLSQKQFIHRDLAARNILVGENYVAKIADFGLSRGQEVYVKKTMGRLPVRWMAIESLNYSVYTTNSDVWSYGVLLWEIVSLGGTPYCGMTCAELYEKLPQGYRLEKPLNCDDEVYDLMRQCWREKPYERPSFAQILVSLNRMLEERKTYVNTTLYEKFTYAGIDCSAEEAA
T5 sequence (Q96RG2 whole entry): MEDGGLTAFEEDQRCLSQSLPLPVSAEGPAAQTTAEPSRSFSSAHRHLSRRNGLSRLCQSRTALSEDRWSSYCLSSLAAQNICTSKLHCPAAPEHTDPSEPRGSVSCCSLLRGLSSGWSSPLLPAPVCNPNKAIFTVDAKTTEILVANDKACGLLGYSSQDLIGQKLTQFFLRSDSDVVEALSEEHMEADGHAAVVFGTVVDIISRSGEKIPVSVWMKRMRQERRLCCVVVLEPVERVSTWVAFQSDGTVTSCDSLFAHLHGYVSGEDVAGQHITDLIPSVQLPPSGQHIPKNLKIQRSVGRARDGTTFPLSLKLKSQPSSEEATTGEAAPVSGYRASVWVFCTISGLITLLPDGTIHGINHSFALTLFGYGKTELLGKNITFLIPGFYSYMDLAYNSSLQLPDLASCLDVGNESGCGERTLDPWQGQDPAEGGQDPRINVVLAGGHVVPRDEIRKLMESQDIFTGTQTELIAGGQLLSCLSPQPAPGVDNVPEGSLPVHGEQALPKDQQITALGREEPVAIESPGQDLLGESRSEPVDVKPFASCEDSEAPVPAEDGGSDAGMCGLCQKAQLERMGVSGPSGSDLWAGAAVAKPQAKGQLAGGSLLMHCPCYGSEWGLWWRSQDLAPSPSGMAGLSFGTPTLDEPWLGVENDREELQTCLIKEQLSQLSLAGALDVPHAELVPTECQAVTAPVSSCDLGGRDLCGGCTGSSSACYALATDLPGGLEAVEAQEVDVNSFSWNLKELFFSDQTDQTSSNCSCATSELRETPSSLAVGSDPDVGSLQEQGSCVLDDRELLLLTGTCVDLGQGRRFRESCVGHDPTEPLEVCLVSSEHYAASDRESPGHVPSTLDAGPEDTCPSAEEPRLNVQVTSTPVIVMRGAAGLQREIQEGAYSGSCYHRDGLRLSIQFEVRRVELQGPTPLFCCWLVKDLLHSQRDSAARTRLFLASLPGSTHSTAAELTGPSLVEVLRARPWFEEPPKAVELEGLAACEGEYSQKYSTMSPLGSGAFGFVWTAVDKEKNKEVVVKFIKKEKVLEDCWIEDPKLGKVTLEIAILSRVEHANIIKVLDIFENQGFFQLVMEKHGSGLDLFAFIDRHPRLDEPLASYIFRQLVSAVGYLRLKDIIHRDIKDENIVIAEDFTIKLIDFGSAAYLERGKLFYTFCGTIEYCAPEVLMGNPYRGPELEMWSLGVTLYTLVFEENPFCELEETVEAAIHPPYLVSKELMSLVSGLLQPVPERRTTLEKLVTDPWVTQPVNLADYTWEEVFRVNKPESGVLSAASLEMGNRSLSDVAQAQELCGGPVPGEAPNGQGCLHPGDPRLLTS

Turning to FAKLAARLYRKALARQLGVAA [MMI-0300], the “% activity” value in assay [1] was determined as 70%; in assay [2], 86%; in assay [3], 53%; in assay [4], 1%; in assay [5], 84%; in [6], 93%. Also, the “% activity” value in assay [7] is reported as 64%; in [8] it was 83%; in assay [9], 19%; in assay [10] it was 29%; in assay [11], 80%; in assay [12], 37%. Besides, the “% activity” value in [13] was 92%; in assay [14], 49%.
Consider “HRRIKAWLKKIKALARQLGVAA (Mammalian) [MMI-0500]”, for which the “% activity” value was 59% in [1]; 29% in assay [2]; 45% in assay [3]; 1% in assay [4]; 73% in [5]; 50% in [6]. Further, the “% activity” value in [7] stood at 25%; in [8], 80%; in [9], 12%; in [10], 9%; in assay [11] it was 45%; in assay [12] it was 7%. For the same sequence, the results for the “% activity” value in [13] and in [14] were 20% and 2%, respectively.
In the case of “YARAAARQARAKALNRQLGVA (Mammalian) [MMI-0200]”, the “% activity” value was determined as 56% in [1]; 110% in assay [3]; 2% in assay [4]; 141% in assay [5]; 70% in assay [7]; 85% in assay [8]. Also, the “% activity” value in assay [9] stood at 95%; in [10], 60%; in assay [11] it was 94%; in assay [12], 67%; in [13], 100%; in assay [14], 33%.
Take KAFAKLAARLYRKALARQLGVAA [MMI-0400]: the “% activity” value in [1] is listed as 76%; in assay [2] it was 78%; in assay [3], 43%; in [4], 2%; in assay [5], 36%; in assay [6], 87%. For the same sequence, the “% activity” value was 58% in assay [7]; 87% in assay [8]; 16% in assay [9]; 28% in assay [10]; 77% in assay [11]; 18% in assay [12]. The “% activity” value in assay [13] was 85%; in [14], 16%.
